# Test results published in FireProtDB (doi:10.1006/jmbi.1995.0174).
# Values joined by “and” are separate entries in the source; they are usually repeats but may differ in a detail not shown here. Identical values can stand only once.
# B1: Anionic trypsin wild type, Q29463 (protein)
# chain: MHPLLILAFVGAAVAFPSDDDDKIVGGYTCAENSVPYQVSLNAGYHFCGGSLINDQWVVSAAHCYQYHIQVRLGEYNIDVLEGGEQFIDASKIIRHPKYSSWTLDNDILLIKLSTPAVINARVSTLLLPSACASAGTECLISGWGNTLSSGVNYPDLLQCLVAPLLSHADCEASYPGQITNNMICAGFLEGGKDSCQGDSGGPVACNGQLQGIVSWGYGCAQKGKPGVYTKVCNYVDWIQETIAANS
# B2: Serine protease 1 wild type, P00760 (protein)
# chain: MKTFIFLALLGAAVAFPVDDDDKIVGGYTCGANTVPYQVSLNSGYHFCGGSLINSQWVVSAAHCYKSGIQVRLGEDNINVVEGNEQFISASKSIVHPSYNSNTLNNDIMLIKLKSAASLNSRVASISLPTSCASAGTQCLISGWGNTKSSGTSYPDVLKCLKAPILSDSSCKSAYPGQITSNMFCAGYLEGGKDSCQGDSGGPVVCSGKLQGIVSWGSGCAQKNKPGVYTKVCNYVSWIKQTIASN
# Details: Bos taurus; pH 5.8; 25 °C; GdnHCl; Fluorescence; MES 30 mM; CaCl2 20 mM; reversible: yes; whole UniProt chain shown
Protein,denaturant m value,denaturant midpoint (higher = more stable),unfolding free energy
B1,5.74 kcal/mol/M,2.19 M,52.3 kJ/mol

# Same assay, conditions: Bos taurus; pH 4.2; Thermal; Fluorescence; acetate 30 mM; reversible: yes; whole UniProt chain shown
Protein,Tm,heat capacity change of unfolding,unfolding enthalpy (van 't Hoff)
B2,66 °C and 65 °C,3.09 kcal/mol/K and 2.64 kcal/mol/K,628 kJ/mol and 688 kJ/mol

# Same assay, conditions: Bos taurus; pH 7.5; 25 °C; GdnHCl; Fluorescence; Tris-HCl 0.1 M; CaCl2 20 mM; reversible: no; whole UniProt chain shown
Protein,denaturant m value,denaturant midpoint (higher = more stable),unfolding free energy
B2,4.22 kcal/mol/M,2.5 M,44.4 kJ/mol

# Same assay, conditions: Bos taurus; pH 8.3; 25 °C; GdnHCl; Fluorescence; Tris-HCl 0.1 M; CaCl2 20 mM; reversible: no; whole UniProt chain shown
Protein,denaturant m value,denaturant midpoint (higher = more stable),unfolding free energy
B2,4.1 kcal/mol/M,2.27 M,38.9 kJ/mol
